Source: patent publication US9115359B2, “Methods for producing secondary metabolites” (NewSouth Innovations Pty Limited, priority 2007, dated 2015)

Legend:
E. coli AcpS = settings: reported (21,40); with respect to CoA; cited from earlier work
Mpcp = test: NhcS PPT assay, ESI-MS; assay type: biochemical, Microcystis aeruginosa; settings: 30 min assay
Description: (§1) PPT assays were carried out as previously described in Finking, R., et al., (2002) Characterization of a new type of phosphopantetheinyl transferase for fatty acid and siderophore synthesis in Pseudomonas aeruginosa. J Biol Chem 277:50293-302). In brief, a 100-400 μL reaction comprising of 50 mM Tris-HCl pH 7.4, 12.5 mM MgCl, 0.5 mM CoA, 2 μM DTT, 30 μg of the respective carrier proteins (CPs) and 300 nM of PPT was incubated at 37° C. for 30 minutes. Reactions were terminated by the addition of 1 ml of 10% TCA. Assays were precipitated overnight at −20° C. before at centrifugation 4° C., for 15 mins at 16,000 g. Protein pellets were analysed by electrospray ionisation mass spectrometry (ESI-MS). Spectra were acquired using an API QStar Pulsar i hybrid tandem mass spectrometer (Applied Biosystems, Foster City Calif.). Samples (˜200-400 fmol) were dissolved in water:acetonitrile:formic acid (50:49:1), loaded (1 μl) into nanospray needles (Proxeon, Denmark) and the tip positioned ˜10 mm from the orifice. Nitrogen was used as curtain gas and a potential of 900 V applied to the needle. A T of MS scan was acquired (m/z 550-2000, 1 second) and accumulated for ˜1 minute into a single file. […]
(§2) Activity was detected by ionisation mass spectrometry through the mass addition of […], relating to the incorporation of the pantetheinyl arm of CoA transferred by the PPT to the CP (FIG. 17).

Nppcp = test: NhcS PPT assay, ESI-MS; assay type: biochemical, Nostoc punctiforme; settings: 30 minutes, 37° C.
Description: as §1, §2

HetM ArCP = test: NhcS PPT assay, ESI-MS; assay type: biochemical, N. punctiforme ATCC29133; settings: 30 minutes, 37° C.
Description: as §1, §2

[1] = system: Synechocystis sp. PCC6803; test: Complementation of Sppt gene disruption with NsPPT; assay type: cell-based; settings: PCR screening of segregation
Text: A 2.5 kb fragment including Sppt (slr0495, Swissprot accession number Q55185) was amplified with the primers sirup (5′-[…]-3′) (SEQ ID NO: 7) and slrdn (5′-[…]-3′) (SEQ ID NO: 8). This fragment was cloned into pGEM-T-Easy (Promega) and digested with the restriction enzyme AvaI. A chloramphenicol (Chl^R) resistance cassette was ligated into this site and the resulting plasmid, pGCSlr, was naturally transformed into Synechocystis sp. PCC6803 to insertionally inactivate Sppt using methods described in Eaton-Rye, J., 2004 The construction of gene knockouts in the cyanobacterium Synechocystis sp. PCC 6803, Methods Mol. Biol.; 274:309-24. The Synechocystis sp. PCC6803 wildtype (WT) was also transformed with a chloramphenicol resistance knockout plasmid as a positive control for strain viability. Briefly, approximately 2 ml Synechocystis sp. PCC6803 cells were centrifuged and washed in BG-11 media. After resuspension in […] BG-11, 3 μg ml^−1 plasmid was added and the cells were incubated at 25° C. in 30 μmol m^−2 sec^−1 constant light for 6 hours. The cells were spread onto sterile nitrocellulose filters (0.45 μm, Millipore, Billerica Mass.) on non-selective BGTS plates (BG-11, 10 mM TES, 0.3% sodium thiosulfate, 1% agar). After 36 hours, the filters were transferred to selective BGTS plates with 10 μg ml^−1 chloramphenicol. […]

Molecule	kcat value (E. coli AcpS)	pantetheinylation of Mpcp (Mpcp)	pantetheinylation of Nppcp (Nppcp)	conversion of apo-ArCP to holo-ArCP (HetM ArCP)	Sppt gene disruption in NsPPT-complemented strain [1]
CC(C)(COP(=O)(O)OP(=O)(O)OC[C@H]1O[C@@H](n2cnc3c(N)ncnc32)[C@H](O)[C@@H]1OP(=O)(O)O)[C@@H](O)C(=O)NCCC(=O)NCCS [CoA, co-enzyme A]	approximately 10 min^d	–	–	–	–
NhcS: phosphopantetheinyl transferase (heterocyst carrier protein synthase) from Nodularia spumigena NSOR10 (protein) MTALNHLWLPVPTNLTLLPNDVHIWRIHLDVPEAQQQNLLATLSGDELTRANRFHFQEHRQRFIAGRGILRSILGSYLGIEPQRVLFDYQERGKPILADSLAKSGLWFNLSHSQGLALCAVNYHNRIGIDLEYIRRMSDVEALAKRFFLPREYDVVRSLSDHQQQEIFFRYWTCKEAYLKATGEGLAQLEQVEVLLNPTEPAQLQTSESWSLFELRAAEDYFAAVVVEGSGCNLQCWQY	–	Complete pantetheinylation	Nppcp was pantetheinylated	conversion of the apo-ArCP (15.75 kDa) to the holo-ArCP (16.05 kDa) is seen	Sppt was effectively disrupted in the NsPPT-complemented strain
